Drawing on patent US20170258870A1, this text covers post-ER form of GC (EndoH resistance) on co-expression of LIMP-2 for one substance.

The target in this experiment is myc-tagged LIMP-2. The experiment in a line: cell-based or functional assay.

As to “wild-type β-glucocerebrosidase (GC), human, overexpressed in cells (from UniProt P04062 40-536) (enzyme)”, the post-ER form of GC (EndoH resistance) on co-expression of LIMP-2 came to 10 fold.
